{
  "source": "patent US20230049152A1",
  "about": "(Genentech, published 2023)",
  "binders": {"B1": {"name": "hu.Ab5.H10L1 (antibody, human IgG1, kappa, V domains shown)", "VH": "EQQLLESGGGLVQPGGSLRLSCAVSGIDLSTYAMGWVRQAPGKGLEWIGLIHRSGRTYYATWAKGRFTISKDSSKTTVYLQMNSLRAEDTAVYYCTRSYPDYSATASIWGPGTTVTVSS", "VL": "DIQVTQSPSSLSASVGDRVTITCQASENIANALAWYQQKPGKPPKFLIYGASNLASGVPSRFSGSGSGTDFTFTISSLQPEDIATYYCQQAYYGNSFVEGTFGGGTKVEIKR"}, "B2": {"name": "hu.Ab5.H11L1 (antibody, human IgG1, kappa)", "heavy": "not shown", "light": "DIQVTQSPSSLSASVGDRVTITCQASENIANALAWYQQKPGKPPKFLIYGASNLASGVPSRFSGSGSGTDFTFTISSLQPEDIATYYCQQAYYGNSFVEGTFGGGTKVEIKRTVAAPSVFIFPPSDEQLKSGTASVVCLLNNFYPREAKVQWKVDNALQSGNSQESVTEQDSKDSTYSLSSTLTLSKADYEKHKVYACEVTHQGLSSPVTKSFNRGEC"}, "B3": {"name": "hu.Ab5.H12L1 (antibody, human IgG1, kappa, V domains shown)", "VH": "B1 VH with Q2V, V24A, I48V, G49S, K71R, S73N, T76N, V78L, P111Q", "VL": "B1 VL"}, "B4": {"name": "rb.Ab5 (antibody, V domains shown)", "VH": "QSVEESGGRLVSPGTPLTLTCTVSGIDLSTYAMGWVRQAPGKGLEWIGLIHRSGRTYYATWAKGRFTISKTSSTTVDLKITSPTTEDTATYFCTRSYPDYSATASIWGPGTLVTVSS", "VL": "DIVVTQTPASVEAAVGGTVTIKCQASENIANALAWYQQKSGQPPMFLIYGASNLASGVSSRFKGSGSGTEFTLTISDLECADAAVYYCQCAYYGNSFVEGTFGGGTEVVVK", "notes": "Rabbit variable regions; also called parental rabbit antibody Ab5"}, "B5": {"name": "hu.Ab4.H2L1 (antibody, human IgG1, kappa)", "heavy": "not shown", "light": "DYQMTQSPSSLSASVGDRVTITCQASQSISSYLSWYQQKPGKRPKLLIYKASTLASGVPSRFSGSGSGTDFTLTISSLQPEDFATYYCQQGYTSSNIDNIFGGGTKVEIKRTVAAPSVFIFPPSDEQLKSGTASVVCLLNNFYPREAKVQWKVDNALQSGNSQESVTEQDSKDSTYSLSSTLTLSKADYEKHKVYACEVTHQGLSSPVTKSFNRGEC"}, "B6": {"name": "hu.Ab4.H3L1 (antibody, human IgG1, kappa, V domains shown)", "VH": "EQQLLESGGGLVQPGGSLRLSCAASGFSLSNYAMIWVRQAPGKGLEWVGTISLGGYTYYANWAKGRFTISKDSSKTTVYLQMNSLRAEDTAVYFCARARWSTDSAIYTYAFDPWGPGTLVTVSS", "VL": "DYQMTQSPSSLSASVGDRVTITCQASQSISSYLSWYQQKPGKRPKLLIYKASTLASGVPSRFSGSGSGTDFTLTISSLQPEDFATYYCQQGYTSSNIDNIFGGGTKVEIKR"}, "B7": {"name": "hu.Ab4.H4L1 (antibody, human IgG1, kappa, V domains shown)", "VH": "B6 VH with A24V, G49S", "VL": "B6 VL"}, "B8": {"name": "hu.Ab4.H5L1 (antibody, human IgG1, kappa, V domains shown)", "VH": "B6 VH with A24V, K71R", "VL": "B6 VL"}, "B9": {"name": "hu.Ab4.H6L1 (antibody, human IgG1, kappa, V domains shown)", "VH": "B6 VH with A24V, S73N", "VL": "B6 VL"}, "B10": {"name": "hu.Ab4.H7L1 (antibody, human IgG1, kappa, V domains shown)", "VH": "B6 VH with A24V, T76N", "VL": "B6 VL"}, "B11": {"name": "hu.Ab4.H8L1 (antibody, human IgG1, kappa, V domains shown)", "VH": "B6 VH with A24V, V78L", "VL": "B6 VL"}, "B12": {"name": "hu.Ab4.H9L1 (antibody, human IgG1, kappa, V domains shown)", "VH": "B6 VH with A24V, F94Y", "VL": "B6 VL"}, "B13": {"name": "hu.Ab4.H10L1 (antibody, human IgG1, kappa)", "heavy": "not shown", "light": "B5 light"}, "B14": {"name": "hu.Ab4.H11L1 (antibody, human IgG1, kappa, V domains shown)", "VH": "B6 VH with Q2V, G49S, K71R, S73N, T76N, V78L, F94Y, P116Q", "VL": "B6 VL"}, "B15": {"name": "rb.Ab4 (antibody, V domains shown)", "VH": "QSVEESGGRLVTPGTPLTLTCTVSGFSLSNYAMIWVRQAPGEGLEWVGTISLGGYTYYANWAKGRFTISKTSTTVDLKISSPTTEDTATYFCARARWSTDSAIYTYAFDPWGPGTLVTVSS", "VL": "AYDMTQTPASVEVAVGGTVTIKCQASQSISSYLSWYQQKPGQRPELLIYKASTLASGVSSRFKGSGSGTQFTLTISDLECADAATYYCQQGYTSSNIDNIFGGGTEVVVK", "notes": "Rabbit variable regions; also called parental rabbit antibody Ab4"}, "B16": {"name": "hu.Ab4.H1L2 (antibody, human IgG1, kappa)", "heavy": "not shown", "light": "B5 light with Y2I"}, "B17": {"name": "hu.Ab4.H1L3 (antibody, human IgG1, kappa)", "heavy": "not shown", "light": "B5 light with R43A"}, "B18": {"name": "hu.Ab4.H1L4 (antibody, human IgG1, kappa)", "heavy": "not shown", "light": "B5 light with Y2I, R43A"}, "B19": {"name": "hu.Ab5.H1L2 (antibody, human IgG1, kappa)", "heavy": "not shown", "light": "B2 light with V4M"}, "B20": {"name": "hu.Ab5.H1L3 (antibody, human IgG1, kappa, V domains shown)", "VH": "B1 VH with Y94F", "VL": "B1 VL with P43A"}, "B21": {"name": "hu.Ab5.H1L4 (antibody, human IgG1, kappa, V domains shown)", "VH": "B1 VH with Y94F", "VL": "B1 VL with F46L"}, "B22": {"name": "hu.Ab5.H1L5 (antibody, human IgG1, kappa, V domains shown)", "VH": "B1 VH with Y94F", "VL": "B1 VL with V4M, P43A, F46L"}},
  "note": "Residue numbers refer to the chain shown, from its start.",
  "data": [
    {"biological_target": "T1, human CCR8 (human, UniProt P51685 1-355)", "T1 construct": "the assay field says which; also called hCCR8; huCCR8", "test": "flow cytometry, CHO-huCCR8.Gna15 cells, relative to rb.Ab5", "method": "(§1) Evaluation of CCR8 binding of the humanized variants with a hIgG1 Fc involved screening by flow cytometry, and comparing the relative EC₅₀ and MFI on human CCR8 CHO cells to the parental rabbit antibodies. Specifically, stable CHO-huCCR8.Gna15 cells were stained with various concentrations (starting from 10 ug/ml or 66.66 nM, 1:4 serial dilution for total 8 concentration points) of Ab4 and Ab5 variants at 4° C. for 30 minutes, then washed twice with FACS buffer (PBS with 0.5% BSA and 0.2 mM EDTA) and followed by staining with AF647-anti-hIgG at 4° C. for 15 min. Cells were washed twice with FACS buffer, and re-suspended in FACS buffer with propidium iodide (0.5 ug/ml) and analyzed with iQue3 (Sartorius).", "units": {"Relative EC50": "ratio", "Relative MFI": "ratio"}, "values": [
      {"binder": "B1", "Relative EC50": 1.2, "Relative MFI": 0.87},
      {"binder": "B2", "Relative EC50": 1.3, "Relative MFI": 0.87},
      {"binder": "B3", "Relative EC50": 2.3, "Relative MFI": 0.26},
      {"binder": "B4", "Relative EC50": 1, "Relative MFI": 1}
    ]},
    {"biological_target": "T1, human CCR8", "test": "flow cytometry, CHO-huCCR8.Gna15 cells, relative to rb.Ab4", "method": "as §1", "units": {"Relative EC50": "ratio", "Relative MFI": "ratio"}, "values": [
      {"binder": "B5", "Relative EC50": 0.99, "Relative MFI": 1.07},
      {"binder": "B6", "Relative EC50": 1, "Relative MFI": 1.02},
      {"binder": "B7", "Relative EC50": 0.96, "Relative MFI": 1.06},
      {"binder": "B8", "Relative EC50": 1.02, "Relative MFI": 0.9},
      {"binder": "B9", "Relative EC50": 1.06, "Relative MFI": 0.68},
      {"binder": "B10", "Relative EC50": 1.05, "Relative MFI": 0.44},
      {"binder": "B11", "Relative EC50": 1.03, "Relative MFI": 0.72},
      {"binder": "B12", "Relative EC50": 1.04, "Relative MFI": 0.87},
      {"binder": "B13", "Relative EC50": 1.07, "Relative MFI": 0.77},
      {"binder": "B14", "Relative EC50": 0.88, "Relative MFI": 0.66},
      {"binder": "B15", "Relative EC50": 1, "Relative MFI": 1}
    ]},
    {"biological_target": "T1, human CCR8", "test": "flow cytometry, CHO-huCCR8.Gna15 cells, relative to rb.Ab4", "remark": "another data set of the same source", "method": "as §1", "units": {"Relative EC50": "ratio", "Relative MFI": "ratio"}, "values": [
      {"binder": "B16", "Relative EC50": 1.06, "Relative MFI": 0.73},
      {"binder": "B17", "Relative EC50": 1.23, "Relative MFI": 1},
      {"binder": "B18", "Relative EC50": 1.04, "Relative MFI": 0.8},
      {"binder": "B15", "Relative EC50": 1, "Relative MFI": 1}
    ]},
    {"biological_target": "T1, human CCR8", "test": "flow cytometry, CHO-huCCR8.Gna15 cells, relative to rb.Ab5", "remark": "another data set of the same source", "method": "as §1", "units": {"Relative EC50": "ratio", "Relative MFI": "ratio"}, "values": [
      {"binder": "B19", "Relative EC50": 1.4, "Relative MFI": 0.79},
      {"binder": "B20", "Relative EC50": 1.5, "Relative MFI": 0.81},
      {"binder": "B21", "Relative EC50": 1.7, "Relative MFI": 0.51},
      {"binder": "B22", "Relative EC50": 0.3, "Relative MFI": 0.31},
      {"binder": "B4", "Relative EC50": 1, "Relative MFI": 1}
    ]}
  ]
}
